According to patent publication US20060276386A1 (published 2006):

Target: T1, C-terminally FLAG-tagged full length UCH-L5 (mouse, UniProt Q9WUP7 1-329)
T1 construct: range 1-329; Co-expressed in HEK-293 cells and immunoprecipitated with an anti-FLAG monoclonal; also called UCH-L5 FLAG
T1 sequence: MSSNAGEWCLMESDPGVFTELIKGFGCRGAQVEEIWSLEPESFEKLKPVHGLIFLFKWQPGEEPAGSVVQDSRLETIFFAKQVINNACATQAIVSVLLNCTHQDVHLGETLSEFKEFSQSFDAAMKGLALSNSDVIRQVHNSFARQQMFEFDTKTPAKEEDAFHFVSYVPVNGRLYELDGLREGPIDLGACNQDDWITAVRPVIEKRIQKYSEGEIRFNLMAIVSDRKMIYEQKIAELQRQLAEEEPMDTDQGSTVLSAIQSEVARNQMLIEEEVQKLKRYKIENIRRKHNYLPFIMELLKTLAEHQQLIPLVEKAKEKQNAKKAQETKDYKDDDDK
Test: co-immunoprecipitation: anti-FLAG IP, anti-HA western blot, HEK-293 lysates
Description: C-terminally FLAG®-tagged UCH-L5 or UCH-L5ΔC were co-expressed in human embryonic kidney (HEK)—293 cells with N-terminally HA-tagged Smad proteins.
Referring to FIG. 3, HEK-293 cells were transfected with 20 μg of DNA construct directing the expression of UCH-L5 FLAG or UCH-L5ΔC FLAG and 20 μg of DNA construct expressing one of: HA-Smad 3₁₋₃₈₅; HA-Smad3₁₋₂₄₀; or HA-Smad3₁₋₄₄. Lysates of the cells were prepared by a standard detergent lysis method, using 1% Triton X-100 and then immunoprecipitated with an anti-FLAG monoclonal. The precipitated proteins were then subjected to SDS-PAGE.
For comparison, a blot of the same samples was then probed with a haemagglutinin-specific 1st antibody.

- binding result: no binding
B1: N-terminally HA-tagged Smad3 residues 1-144 (other)
chain: MSSILPFTPPIVKRLLGWKKGEQNGQEEKWCEKAVKSLVKKLKKTGQLDELEKAITTQNVNTKCITIPRSLDGRLQVSHRKGLPHVIYCRLWRWPDLHSHHELRAMELCEFAFNMKKDEVCVNPYHYQRVETPVLPPVLVPRHT
notes: not shown: haemagglutinin (HA) tag, N-terminal
